Ten molecules from patent US20210292414A1 (H LUNDBECK A S, published 2021) can be followed below.

Holding throughout (test): BLI (Octet384RED)
The target in assay [1] is T1, Sortilin SORTECDBAP_tetra (tetraodon).
T1 construct: Fully tetraodon Sortilin ECD with BAP tag; also called tetraodon; tetraodon Sortilin
T1 chain: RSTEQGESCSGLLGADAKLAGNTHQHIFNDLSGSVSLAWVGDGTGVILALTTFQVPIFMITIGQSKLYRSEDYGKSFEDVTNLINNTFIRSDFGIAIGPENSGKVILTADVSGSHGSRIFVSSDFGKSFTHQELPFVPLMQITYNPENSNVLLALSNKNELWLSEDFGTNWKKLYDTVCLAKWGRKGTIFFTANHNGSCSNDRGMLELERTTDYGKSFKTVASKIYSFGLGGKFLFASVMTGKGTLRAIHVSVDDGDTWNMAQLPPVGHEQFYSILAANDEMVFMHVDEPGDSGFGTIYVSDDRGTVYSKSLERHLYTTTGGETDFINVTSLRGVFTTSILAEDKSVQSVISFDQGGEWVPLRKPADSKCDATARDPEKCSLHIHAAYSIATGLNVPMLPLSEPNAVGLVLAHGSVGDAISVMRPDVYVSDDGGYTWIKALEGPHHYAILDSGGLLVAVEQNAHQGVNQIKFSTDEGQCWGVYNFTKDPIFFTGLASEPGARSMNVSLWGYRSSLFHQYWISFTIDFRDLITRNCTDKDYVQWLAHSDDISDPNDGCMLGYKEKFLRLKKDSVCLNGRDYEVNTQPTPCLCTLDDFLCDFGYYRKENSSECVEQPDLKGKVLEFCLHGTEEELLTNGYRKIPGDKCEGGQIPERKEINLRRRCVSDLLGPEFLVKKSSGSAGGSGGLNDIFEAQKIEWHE

In assay [2] the target is T2, Sortilin SORTECDBAP_hB01-05 (human/tetraodon chimera).
T2 construct: Shuffle construct: chimeric human/tetraodon Sortilin ECD with BAP tag
T2 chain: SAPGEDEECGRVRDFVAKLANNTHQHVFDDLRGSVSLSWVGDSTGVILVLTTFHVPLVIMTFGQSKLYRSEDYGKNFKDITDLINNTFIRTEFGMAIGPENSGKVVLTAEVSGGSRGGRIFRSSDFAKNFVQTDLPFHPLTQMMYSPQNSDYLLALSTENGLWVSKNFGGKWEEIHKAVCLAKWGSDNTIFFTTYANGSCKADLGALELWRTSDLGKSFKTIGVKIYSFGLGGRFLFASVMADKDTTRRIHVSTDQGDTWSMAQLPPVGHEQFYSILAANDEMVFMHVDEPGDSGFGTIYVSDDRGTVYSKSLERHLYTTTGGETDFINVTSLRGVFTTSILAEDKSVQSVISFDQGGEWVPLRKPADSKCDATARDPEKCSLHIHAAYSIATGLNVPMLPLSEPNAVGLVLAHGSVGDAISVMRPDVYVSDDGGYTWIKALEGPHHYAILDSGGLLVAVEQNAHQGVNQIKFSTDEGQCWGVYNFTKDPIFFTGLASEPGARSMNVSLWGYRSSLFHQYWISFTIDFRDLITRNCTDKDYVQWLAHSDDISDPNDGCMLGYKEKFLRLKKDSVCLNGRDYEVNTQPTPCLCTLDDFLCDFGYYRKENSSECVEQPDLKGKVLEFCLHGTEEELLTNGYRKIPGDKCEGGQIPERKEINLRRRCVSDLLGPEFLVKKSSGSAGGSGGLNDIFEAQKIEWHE

The target in assay [3] is T1, Sortilin SORTECDBAP_tetra.
Another assay concerns the target T3, Sortilin hSORTECDBAP (human, UniProt Q99523 78-755).
T3 sequence: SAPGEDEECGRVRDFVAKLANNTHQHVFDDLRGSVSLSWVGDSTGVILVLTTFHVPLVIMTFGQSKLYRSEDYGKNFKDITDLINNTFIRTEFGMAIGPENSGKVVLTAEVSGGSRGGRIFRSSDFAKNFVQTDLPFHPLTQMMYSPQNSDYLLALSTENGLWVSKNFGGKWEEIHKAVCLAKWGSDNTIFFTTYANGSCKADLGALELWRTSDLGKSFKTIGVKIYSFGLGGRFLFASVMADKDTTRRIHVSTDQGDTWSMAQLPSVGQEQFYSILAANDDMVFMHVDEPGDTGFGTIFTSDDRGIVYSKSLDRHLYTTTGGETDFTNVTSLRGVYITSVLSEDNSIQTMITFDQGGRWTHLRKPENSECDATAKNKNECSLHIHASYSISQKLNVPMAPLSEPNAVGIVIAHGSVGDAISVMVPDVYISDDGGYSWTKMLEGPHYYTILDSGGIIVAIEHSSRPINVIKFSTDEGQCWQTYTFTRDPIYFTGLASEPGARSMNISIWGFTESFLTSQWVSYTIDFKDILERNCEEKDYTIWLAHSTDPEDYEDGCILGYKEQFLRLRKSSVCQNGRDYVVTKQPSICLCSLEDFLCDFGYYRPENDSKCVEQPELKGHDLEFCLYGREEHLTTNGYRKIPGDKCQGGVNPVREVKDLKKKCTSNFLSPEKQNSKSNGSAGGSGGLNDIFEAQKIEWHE

Assay [4] deals with T4, Sortilin SORTECDBAP_hB45678 (human/tetraodon chimera).
T4 construct: Shuffle construct: chimeric human/tetraodon Sortilin ECD with BAP tag
T4 chain: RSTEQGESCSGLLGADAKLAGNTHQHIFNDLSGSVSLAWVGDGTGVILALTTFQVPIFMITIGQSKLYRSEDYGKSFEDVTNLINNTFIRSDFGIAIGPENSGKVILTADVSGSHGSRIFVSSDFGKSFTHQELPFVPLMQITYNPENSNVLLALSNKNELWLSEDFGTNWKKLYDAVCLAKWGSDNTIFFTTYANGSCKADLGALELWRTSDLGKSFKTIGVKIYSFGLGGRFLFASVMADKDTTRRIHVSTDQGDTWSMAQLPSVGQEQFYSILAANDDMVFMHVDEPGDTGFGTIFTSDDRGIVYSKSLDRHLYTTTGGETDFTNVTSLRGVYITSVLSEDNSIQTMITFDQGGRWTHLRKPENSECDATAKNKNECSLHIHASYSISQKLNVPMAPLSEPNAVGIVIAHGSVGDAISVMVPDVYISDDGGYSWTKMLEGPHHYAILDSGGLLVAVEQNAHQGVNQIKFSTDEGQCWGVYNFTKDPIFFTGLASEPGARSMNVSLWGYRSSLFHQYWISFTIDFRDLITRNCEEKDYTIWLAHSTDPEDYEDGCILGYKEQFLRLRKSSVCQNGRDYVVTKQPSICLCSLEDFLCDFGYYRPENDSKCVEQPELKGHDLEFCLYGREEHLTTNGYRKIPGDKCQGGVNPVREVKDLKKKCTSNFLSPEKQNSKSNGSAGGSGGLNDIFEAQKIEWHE

Like-named read-outs stand apart in the source and are kept apart here.

B1: Antibody 6003-799 (antibody, human IgG1, V domains shown)
VH: QVQLVESGGGVVQPGRSLRLSCAASGFTFSSYGMHWVRQAPGKGLEWVTVISYDGSNKYYADSVKGRFTISRDNSKNTLYLQMNSLRAEDTAVYYCAKLTGDAFDIWGQGTMVTVSS
VL: EIVLTQSPATLSLSPGERATLSCRASQSVSSYLVWYQQKPGQAPRLLIYHASNRATGIPARFSGSGSGTDFTLTISSLEPEDFAVYYCQQRSNWPRITFGQGTRLEIK
Turning to B1, the binding result in assay [1] is listed as “no binding”.

B2: Antibody 6003-822 (antibody, human IgG1, V domains shown)
VH: EVQLLESGGGLVQPGESLTLSCAASGFTLSSYAMSWVRQAPGKGLEWVSSISGRLGTTYYAASVKGRFTISRDNSKNTLYLQMNSLRAEDTAIYSCAKAPSDAFDIWGQGTMVTVSS
VL: EIVLTQSPATLSLSPGERATLSCRASQSVSSYLAWYQQKPGQAPRLLIYDASNRATGIPARFSGSGSGTDFTLTISSLEPEDFAVYYCQQRSNWPIFTFGPGTKVDIK
Take B2: the binding result in assay [1] is on record as “no binding”.

B3: Antibody 6003-381 (antibody, human IgG1, V domains shown)
VH: QVQLVESGGGVVQPGRSLRLSCAASGFTFSNYVMHWVRQAPGKGLEWVAAISYNGNNKYYADSVKGRFTISRDNSKNTLYLQMNSLRAEDTAVSYCAKGLNDAFDIWGQGTMVTVSS
VL: not shown
With B3, the binding result in assay [2] and in assay [3] was “no binding” throughout. Moreover, the EC50 with Sortilin hSORTECDBAP came to 1.82 ng/mL; in assay [4], 2 ng/mL.

B4: Antibody 6003-030 (antibody, human IgG1, V domains shown)
VH: EVQVLESGGGLVQPGGSLRLSCAASGFTFSSYAMSWVRQAPGKGLEWVSTISGRGGNTYYADSVKGRFTISRDNSKNTLYLQMDSLRAEDTAVYYCAIIPSLYWYFDLWGRGTLVTVSS
VL: EIVLTQSPATLSLSPGERATLSCRASQSVSSYLAWYQQKPGQAPRLLIYDASNRATGIPARFSGSGSGTDFTLTISSLEPEDFAVYYCQQRSNWPLTFGGGTKVEIK
notes: Human antibody (HuMab); also called antibody 30; mAb30
With B4, the binding result in assay [2] and in assay [3] was “no binding” in each case. In addition, the EC50 in the assay with Sortilin hSORTECDBAP was found to be 0.89 ng/mL; in assay [4], 0.85 ng/mL.

B5: Antibody 6003-083 (antibody, human IgG1, V domains shown)
VH: EVQLLESGGGLVQPGGSLRLSCAASGFTFSSYAMSWVRQAPGKGLEWVSTISGRGGSTYYADSVKGRFTISRDNSKNTLYLQMNSLRAEDTAVYYCAIVATMYWYFDLWGRGTLVTVSS
VL: EIVLTQSPATLSLSPGERATLSCRASQSVSSYLAWYQQKPGQAPRLLIYDASNRATGIPARFSGSGSGTDFTLTISSLEPEDFAVYYCQQRSNWPITFGQGTRLEIK
Take B5: the binding result in assay [2] and in assay [3] was “no binding” each time. For the same molecule, the EC50 with Sortilin hSORTECDBAP was determined as 0.77 ng/mL; in assay [4] it was 0.92 ng/mL.

B6: Antibody 6003-028 (antibody, human IgG1, V domains shown)
VH: EVQLLESGGGLVQPGGSLRLSCAASGFTFSSYAMSWVRQAPGKGLEWVSTISGRGGSTYYADSVKGRFTISRDNSKNTLYLQMNSLRAEDTAVYYCANLYSNYWYFDLWGRGTLVTVSS
VL: EIVLTQSPATLSLSPGERATLSCRASQSVSSFLAWYQQKPGQAPRLLIYDASNRATGIPARFSGSGSGTDFTLTISSLEPEDFAVYYCQQRSNWPLTFGGGTKVEIK
Take B6: the binding result in assay [2] and in assay [3] was “no binding” each time. In addition, the concentration giving a half-maximal response (EC50) with Sortilin hSORTECDBAP came to 1.75 ng/mL; in assay [4] it was 1.96 ng/mL.

B7: Antibody 6003-1286 (antibody, human IgG1, V domains shown)
VH: EVQLLESGGGLVQPGGSLRLSCAASGFTFSSYAMSWVRQAPGKGLEWVSTISGRGGNTYYADSVKGRFTISRDNSKNTLYLQMNSLRAEDAAVYYCANIYSHYWYFDLWGRGTLVTVSS
VL: EIVLTQSPATLSLSPGERATLSCRASQSVNSYLAWYQQKPGQAPRLLIYDASNRATGIPARFSGSGSGTDFTLTISSLEPEDFAVYYCQQRSNWPLTFGGGTKVEIK
As to B7, the binding result in assay [2] and in assay [3] was “no binding” in each case. In addition, the EC50 (in the assay with Sortilin hSORTECDBAP; in assay [4]) was 1.02 ng/mL throughout.

B8: Antibody 6003-056 (antibody, human IgG1, V domains shown)
VH: EVQVLESGGGLVQPGGSLRLSCVASGFTFSSYAMHWVRQAPGKGLEWVSAISGRGGSTYYADSVKGRFTISRDNSKNTLYLQMNSLRAEDTAVYYCAIIPSLYWYFDLWGRGTLVTVSS
VL: EIVLTQSPATLSLSPGERATLSCRASQSVSSFLAWYQQKPGQAPRLLIYDASNRATGIPARFSGSGSGTDFTLTISSLEPEDFAVYYCQQRSNWPLTFGGGTKVEIK
On to B8, for which the binding result in assay [2] and in assay [3] was “no binding” in each case. For the same molecule, the values for the EC50 (in the assay with Sortilin hSORTECDBAP; in assay [4]) were 1.26 ng/mL and 1.1 ng/mL, respectively.

B9: IgG1-6003-408 (antibody, V domains shown)
VH: EVQLVESGGGLVKPGGSLRLSCAASGFTFSSYSMNWVRQAPGKGLEWVSSISSSSSYIYYADSVKGRFTISRDNAKNSLYLQMNSLRAEDTAVYYCARRRIAAAGTGYGAFDIWGQGTMVTVSS
VL: ARQLTQSPSSLSASVGDRVTITCRASQGITSALAWYQQKPGKVPKLLIYDASSLESGVPSRFSGSGSGTDFTLTISSLQPEDFATYYCQQFNGYPMFSFGQGTKLEII
notes: also called Antibody 6003-408
Turning to B9, the binding result in assay [2] and in assay [3] was “no binding” in each case. Also, the results for the EC50 (in the assay with Sortilin hSORTECDBAP; in assay [4]) were 1.93 ng/mL and 2.58 ng/mL, respectively.

B10: Antibody 6003-1277 (antibody, V domains shown)
VH: QVQLVQSGAEVKKPGASVKVSCKTSGYTFTHYGISWVRQAPGQGLEWMGWINTYNGNTKYAQKLQGRVTMTTDTSTSTAYMELRSLRSDDTAVYYCASLGRNFDYWGQGTLVTVSS
VL: not shown
As for B10, the binding result in assay [2] and in assay [3] was “no binding” throughout. Also, the EC50 with Sortilin hSORTECDBAP is 3.03 ng/mL; in assay [4] it was 4.3 ng/mL.
